Reference: the supplement of paper PMC9112550, “Optimization of the antimicrobial peptide Bac7 by deep mutational scanning” (BMC Biology, 2022)

Test system: Escherichia coli TOP10
Assay: shrunken log2 fold change of peptide-encoding DNA abundance (4.5 h post-induction vs induction); higher = less antimicrobial activity (less host growth inhibition)
Details: time post-induction: 4.5 h; library: site-saturation at positions 5, 18, 19, 20
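Also: peptides expressed intracellularly from a pBAD plasmid library in pooled LB shake-flask culture, induced with 0.3% L-arabinose, DNA abundance read by NGS, three biological replicates, DESeq2 with apeglm shrinkage.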

RRIRPRPPRLPRPRPRPPQAPRP
shrunken log2 fold change: 0.335

RRIRPRPPRLPRPRPRPPQPPRP
shrunken log2 fold change: 0.441

RRIRPRPPRLPRPRPRPPQSPRP
shrunken log2 fold change: 0.621

RRIRPRPPRLPRPRPRPPRGPRP
shrunken log2 fold change: 0.811

RRIRPRPPRLPRPRPRPPRPPRP
shrunken log2 fold change: 0.682

RRIRPRPPRLPRPRPRPPRSPRP
shrunken log2 fold change: 0.518

RRIRPRPPRLPRPRPRPPSIPRP
shrunken log2 fold change: -0.0949

RRIRPRPPRLPRPRPRPPSMPRP
shrunken log2 fold change: 0.29

RRIRPRPPRLPRPRPRPPSRPRP
shrunken log2 fold change: 0.353

RRIRPRPPRLPRPRPRPPSSPRP
shrunken log2 fold change: -0.207

RRIRPRPPRLPRPRPRPPTAPRP
shrunken log2 fold change: 0.189

RRIRPRPPRLPRPRPRPPTEPRP
shrunken log2 fold change: 0.306

RRIRPRPPRLPRPRPRPPTIPRP
shrunken log2 fold change: -0.148

RRIRPRPPRLPRPRPRPPTWPRP
shrunken log2 fold change: 0.302

RRIRPRPPRLPRPRPRPPVKPRP
shrunken log2 fold change: 0.172

RRIRPRPPRLPRPRPRPPVPPRP
shrunken log2 fold change: 0.564

RRIRPRPPRLPRPRPRPPVRPRP
shrunken log2 fold change: 0.353

RRIRPRPPRLPRPRPRPPWQPRP
shrunken log2 fold change: 0.443

RRIRPRPPRLPRPRPRPPWWPRP
shrunken log2 fold change: 0.842

RRIRPRPPRLPRPRPRPPWYPRP
shrunken log2 fold change: -0.195

RRIRPRPPRLPRPRPRPPYHPRP
shrunken log2 fold change: -0.226

RRIRPRPPRLPRPRPRPQAAPRP
shrunken log2 fold change: 0.116

RRIRPRPPRLPRPRPRPQCCPRP
shrunken log2 fold change: 0.0723

RRIRPRPPRLPRPRPRPQCEPRP
shrunken log2 fold change: -0.0437

RRIRPRPPRLPRPRPRPQCWPRP
shrunken log2 fold change: 0.0194

RRIRPRPPRLPRPRPRPQDHPRP
shrunken log2 fold change: -0.12

RRIRPRPPRLPRPRPRPQDYPRP
shrunken log2 fold change: -0.0245

RRIRPRPPRLPRPRPRPQEDPRP
shrunken log2 fold change: -0.0602

RRIRPRPPRLPRPRPRPQEHPRP
shrunken log2 fold change: -0.225

RRIRPRPPRLPRPRPRPQFFPRP
shrunken log2 fold change: -0.0064

RRIRPRPPRLPRPRPRPQGMPRP
shrunken log2 fold change: -0.279

RRIRPRPPRLPRPRPRPQHPPRP
shrunken log2 fold change: 0.0328

RRIRPRPPRLPRPRPRPQIFPRP
shrunken log2 fold change: -0.137

RRIRPRPPRLPRPRPRPQIPPRP
shrunken log2 fold change: -0.0392

RRIRPRPPRLPRPRPRPQKFPRP
shrunken log2 fold change: -0.178

RRIRPRPPRLPRPRPRPQMLPRP
shrunken log2 fold change: 0.0602

RRIRPRPPRLPRPRPRPQNRPRP
shrunken log2 fold change: -0.598

RRIRPRPPRLPRPRPRPQPDPRP
shrunken log2 fold change: -0.0815

RRIRPRPPRLPRPRPRPQPLPRP
shrunken log2 fold change: 0.16

RRIRPRPPRLPRPRPRPQPMPRP
shrunken log2 fold change: 0.225

RRIRPRPPRLPRPRPRPQPYPRP
shrunken log2 fold change: -0.177

RRIRPRPPRLPRPRPRPQQCPRP
shrunken log2 fold change: -0.462

RRIRPRPPRLPRPRPRPQQFPRP
shrunken log2 fold change: -0.049

RRIRPRPPRLPRPRPRPQSSPRP
shrunken log2 fold change: -0.0675

RRIRPRPPRLPRPRPRPQTSPRP
shrunken log2 fold change: 0.163

RRIRPRPPRLPRPRPRPQVLPRP
shrunken log2 fold change: -0.208

RRIRPRPPRLPRPRPRPQWQPRP
shrunken log2 fold change: -0.109

RRIRPRPPRLPRPRPRPQYLPRP
shrunken log2 fold change: -0.769

RRIRPRPPRLPRPRPRPRATPRP
shrunken log2 fold change: 0.261

RRIRPRPPRLPRPRPRPRAVPRP
shrunken log2 fold change: 1.68

RRIRPRPPRLPRPRPRPRCVPRP
shrunken log2 fold change: 0.0965

RRIRPRPPRLPRPRPRPRDHPRP
shrunken log2 fold change: 0.279

RRIRPRPPRLPRPRPRPRDSPRP
shrunken log2 fold change: 0.334

RRIRPRPPRLPRPRPRPRDTPRP
shrunken log2 fold change: -0.0427

RRIRPRPPRLPRPRPRPRFAPRP
shrunken log2 fold change: 0.323

RRIRPRPPRLPRPRPRPRFPPRP
shrunken log2 fold change: 0.233

RRIRPRPPRLPRPRPRPRFYPRP
shrunken log2 fold change: 0.0111

RRIRPRPPRLPRPRPRPRGHPRP
shrunken log2 fold change: 0.0129

RRIRPRPPRLPRPRPRPRGLPRP
shrunken log2 fold change: 0.198

RRIRPRPPRLPRPRPRPRGMPRP
shrunken log2 fold change: 0.137

RRIRPRPPRLPRPRPRPRHFPRP
shrunken log2 fold change: 0.168

RRIRPRPPRLPRPRPRPRHIPRP
shrunken log2 fold change: -0.0802

RRIRPRPPRLPRPRPRPRHVPRP
shrunken log2 fold change: 0.0494

RRIRPRPPRLPRPRPRPRIYPRP
shrunken log2 fold change: 0.0335

RRIRPRPPRLPRPRPRPRKFPRP
shrunken log2 fold change: -0.188

RRIRPRPPRLPRPRPRPRKWPRP
shrunken log2 fold change: 0.671

RRIRPRPPRLPRPRPRPRMCPRP
shrunken log2 fold change: 0.152

RRIRPRPPRLPRPRPRPRMWPRP
shrunken log2 fold change: 0.413

RRIRPRPPRLPRPRPRPRNMPRP
shrunken log2 fold change: -0.126

RRIRPRPPRLPRPRPRPRPAPRP
shrunken log2 fold change: 0.529

RRIRPRPPRLPRPRPRPRPIPRP
shrunken log2 fold change: 0.27

RRIRPRPPRLPRPRPRPRQEPRP
shrunken log2 fold change: 3.83

RRIRPRPPRLPRPRPRPRQMPRP
shrunken log2 fold change: 0.184

RRIRPRPPRLPRPRPRPRQQPRP
shrunken log2 fold change: 0.13

RRIRPRPPRLPRPRPRPRRGPRP
shrunken log2 fold change: 0.46

RRIRPRPPRLPRPRPRPRRPPRP
shrunken log2 fold change: 0.489

RRIRPRPPRLPRPRPRPRRQPRP
shrunken log2 fold change: 0.673

RRIRPRPPRLPRPRPRPRRWPRP
shrunken log2 fold change: 0.56

RRIRPRPPRLPRPRPRPRSNPRP
shrunken log2 fold change: -0.247

RRIRPRPPRLPRPRPRPRTVPRP
shrunken log2 fold change: 0.322

RRIRPRPPRLPRPRPRPRYAPRP
shrunken log2 fold change: 0.0891

RRIRPRPPRLPRPRPRPRYSPRP
shrunken log2 fold change: -0.354

RRIRPRPPRLPRPRPRPRYYPRP
shrunken log2 fold change: -0.385

RRIRPRPPRLPRPRPRPSDNPRP
shrunken log2 fold change: -0.449

RRIRPRPPRLPRPRPRPSELPRP
shrunken log2 fold change: 0.0666

RRIRPRPPRLPRPRPRPSENPRP
shrunken log2 fold change: -0.0512

RRIRPRPPRLPRPRPRPSFEPRP
shrunken log2 fold change: -0.102

RRIRPRPPRLPRPRPRPSFQPRP
shrunken log2 fold change: 0.0876

RRIRPRPPRLPRPRPRPSGGPRP
shrunken log2 fold change: 0.191

RRIRPRPPRLPRPRPRPSGMPRP
shrunken log2 fold change: -0.183

RRIRPRPPRLPRPRPRPSHAPRP
shrunken log2 fold change: -0.166

RRIRPRPPRLPRPRPRPSHPPRP
shrunken log2 fold change: -0.03

RRIRPRPPRLPRPRPRPSHTPRP
shrunken log2 fold change: -0.0343

RRIRPRPPRLPRPRPRPSIFPRP
shrunken log2 fold change: -0.284

RRIRPRPPRLPRPRPRPSIIPRP
shrunken log2 fold change: -0.634

RRIRPRPPRLPRPRPRPSLLPRP
shrunken log2 fold change: -0.205

RRIRPRPPRLPRPRPRPSLYPRP
shrunken log2 fold change: -0.326

RRIRPRPPRLPRPRPRPSPKPRP
shrunken log2 fold change: 0.218

RRIRPRPPRLPRPRPRPSQSPRP
shrunken log2 fold change: -0.0693

RRIRPRPPRLPRPRPRPSRMPRP
shrunken log2 fold change: -0.114

RRIRPRPPRLPRPRPRPSSQPRP
shrunken log2 fold change: -0.201

RRIRPRPPRLPRPRPRPSTDPRP
shrunken log2 fold change: -0.207

RRIRPRPPRLPRPRPRPSVPPRP
shrunken log2 fold change: -0.166

RRIRPRPPRLPRPRPRPSVTPRP
shrunken log2 fold change: -0.385

RRIRPRPPRLPRPRPRPTEFPRP
shrunken log2 fold change: -0.268

RRIRPRPPRLPRPRPRPTEWPRP
shrunken log2 fold change: 0.0519

RRIRPRPPRLPRPRPRPTFTPRP
shrunken log2 fold change: 0.101

RRIRPRPPRLPRPRPRPTFYPRP
shrunken log2 fold change: -0.235

RRIRPRPPRLPRPRPRPTGGPRP
shrunken log2 fold change: 0.392

RRIRPRPPRLPRPRPRPTHAPRP
shrunken log2 fold change: 0.131

RRIRPRPPRLPRPRPRPTHRPRP
shrunken log2 fold change: 0.223

RRIRPRPPRLPRPRPRPTHSPRP
shrunken log2 fold change: 0.185

RRIRPRPPRLPRPRPRPTIGPRP
shrunken log2 fold change: -0.128

RRIRPRPPRLPRPRPRPTINPRP
shrunken log2 fold change: -0.51

RRIRPRPPRLPRPRPRPTIPPRP
shrunken log2 fold change: -0.361

RRIRPRPPRLPRPRPRPTKVPRP
shrunken log2 fold change: -0.0777

RRIRPRPPRLPRPRPRPTLQPRP
shrunken log2 fold change: 0.353

RRIRPRPPRLPRPRPRPTNDPRP
shrunken log2 fold change: -0.00332

RRIRPRPPRLPRPRPRPTNHPRP
shrunken log2 fold change: -0.134

RRIRPRPPRLPRPRPRPTNLPRP
shrunken log2 fold change: -0.107

RRIRPRPPRLPRPRPRPTQEPRP
shrunken log2 fold change: 0.617

RRIRPRPPRLPRPRPRPTRIPRP
shrunken log2 fold change: 0.105

RRIRPRPPRLPRPRPRPTRYPRP
shrunken log2 fold change: 0.23

RRIRPRPPRLPRPRPRPTSEPRP
shrunken log2 fold change: 0.0181

RRIRPRPPRLPRPRPRPTTAPRP
shrunken log2 fold change: 0.0804

RRIRPRPPRLPRPRPRPTVCPRP
shrunken log2 fold change: 0.149

RRIRPRPPRLPRPRPRPTVEPRP
shrunken log2 fold change: -0.104

RRIRPRPPRLPRPRPRPTVLPRP
shrunken log2 fold change: -0.225

RRIRPRPPRLPRPRPRPTVSPRP
shrunken log2 fold change: 0.433

RRIRPRPPRLPRPRPRPTVTPRP
shrunken log2 fold change: -0.0401

RRIRPRPPRLPRPRPRPTVVPRP
shrunken log2 fold change: 0.0581

RRIRPRPPRLPRPRPRPTWDPRP
shrunken log2 fold change: 0.42

RRIRPRPPRLPRPRPRPTWMPRP
shrunken log2 fold change: -0.0166

RRIRPRPPRLPRPRPRPTYDPRP
shrunken log2 fold change: -0.212

RRIRPRPPRLPRPRPRPTYIPRP
shrunken log2 fold change: -0.0167

RRIRPRPPRLPRPRPRPVALPRP
shrunken log2 fold change: 0.0375

RRIRPRPPRLPRPRPRPVCCPRP
shrunken log2 fold change: 0.122

RRIRPRPPRLPRPRPRPVDMPRP
shrunken log2 fold change: 0.0425

RRIRPRPPRLPRPRPRPVDTPRP
shrunken log2 fold change: -0.592

RRIRPRPPRLPRPRPRPVEEPRP
shrunken log2 fold change: 0.54

RRIRPRPPRLPRPRPRPVEIPRP
shrunken log2 fold change: 0.26

RRIRPRPPRLPRPRPRPVENPRP
shrunken log2 fold change: 0.243

RRIRPRPPRLPRPRPRPVEQPRP
shrunken log2 fold change: 0.239

RRIRPRPPRLPRPRPRPVGDPRP
shrunken log2 fold change: 0.365

RRIRPRPPRLPRPRPRPVGHPRP
shrunken log2 fold change: 0.0338

RRIRPRPPRLPRPRPRPVGWPRP
shrunken log2 fold change: 0.826

RRIRPRPPRLPRPRPRPVHFPRP
shrunken log2 fold change: -0.342

RRIRPRPPRLPRPRPRPVHKPRP
shrunken log2 fold change: -0.0637

RRIRPRPPRLPRPRPRPVHYPRP
shrunken log2 fold change: -0.121

RRIRPRPPRLPRPRPRPVIFPRP
shrunken log2 fold change: -0.11
